Changes are numbered by the printed parent chain. In names and notes the source's numbering stands.
B1: parental anti-CD55 antibody (CD55 wt), monoclonal antibody having CD55VH (SEQ ID NO: 14 without any mutations) and the VL (SEQ ID NO: 15) (antibody, V domains shown)
VH: QVKLQESGGGLVQPGGSLKLSCAASGFTFSGYGMSWIRQTPDKRLEWVATINSGGSYTYYSDSVKGRFTISRDNVKNTLYLQMSSLKSEDTAMYYCARRNGTLYYYLMDYWGRGTLVTVSS
VL: QSVLTQPPSASGSPGQSVTISCTGTSSDVGGYNYVSWYQQHPGKAPKFMIYDVSKRPSGVSNRFSGSKSGNTASLTISGVQAEDEADYYCSSYTSASTVIFGGGTKLTVL
notes: Variable domains derived from a CD55 scFv; also called CD55VH + VL; CD55 parental Ab
B2: Anti-PD-L1 homodimer IgG (PD-L1 v1) containing the designed VH sequence (SEQ ID NO: 4) and the common VL sequence (SEQ ID NO: 6) (antibody, V domains shown)
VH: EVQLLESGGGLVEPGGSLRLSCAASGFTFSSYIMMWVRQAPGKGLEWVSSIYPSGGITFYADTVKGRFTISRDNSKNTLYLQMNSLRAEDTAVYYCARIKLGTVTTVDYWGEGTLVTVSS
VL: QSALTQPASVSGSPGQSITISCTGTSSDVGGYNYVSWYQQHPGKAPKLMIYDVSKRPSGVSNRFSGSKSGNTASLTISGLQAEDEADYYCSSYTSASTRIFGGGTKVTVLR
notes: Homodimer IgG; also called PDL1 homodimer version 1
B3: Anti-CD55 homodimer IgG (CD55 v1) containing the designed VH sequence (SEQ ID NO: 5) and the common VL sequence (SEQ ID NO: 6) (antibody, V domains shown)
VH: B1 VH with Q13K, D42G
VL: B2 VL
notes: Homodimer IgG; also called CD55 homodimer version 1
B4: anti-CD55 antibody with CD55VH (SEQ ID NO: 14) N52Y and VL (SEQ ID NO: 15) (antibody, V domains shown)
VH: B1 VH with N52Y
VL: B1 VL
notes: also called Test 9
B5: anti-CD55 antibody with CD55VH (SEQ ID NO: 14) N100E and VL (SEQ ID NO: 15) (antibody, V domains shown)
VH: B1 VH with N100E
VL: B1 VL
notes: also called Test 24
B6: anti-CD55 antibody with CD55VH (SEQ ID NO: 14) N52M and VL (SEQ ID NO: 15) (antibody, V domains shown)
VH: B1 VH with N52M
VL: B1 VL
notes: also called Test 8
B7: anti-CD55 antibody with CD55VH (SEQ ID NO: 14) T102G and VL (SEQ ID NO: 15) (antibody, V domains shown)
VH: B1 VH with T102G
VL: B1 VL
notes: also called Test 27
B8: anti-CD55 antibody with CD55VH (SEQ ID NO: 14) N100L and VL (SEQ ID NO: 15) (antibody, V domains shown)
VH: B1 VH with N100L
VL: B1 VL
notes: also called Test 17
B9: anti-CD55 antibody with CD55VH (SEQ ID NO: 14) N52V and VL (SEQ ID NO: 15) (antibody, V domains shown)
VH: B1 VH with N52V
VL: B1 VL
notes: also called Test 5
B10: anti-CD55 antibody with CD55VH (SEQ ID NO: 14) N52S and VL (SEQ ID NO: 15) (antibody, V domains shown)
VH: B1 VH with N52S
VL: B1 VL
notes: also called Test 2
B11: anti-CD55 antibody with CD55VH (SEQ ID NO: 14) N52P and VL (SEQ ID NO: 15) (antibody, V domains shown)
VH: B1 VH with N52P
VL: B1 VL
notes: also called Test 11
B12: anti-CD55 antibody with CD55VH (SEQ ID NO: 14) N52W and VL (SEQ ID NO: 15) (antibody, V domains shown)
VH: B1 VH with N52W
VL: B1 VL
notes: also called Test 7
B13: anti-CD55 antibody with CD55VH (SEQ ID NO: 14) N100Y and VL (SEQ ID NO: 15) (antibody, V domains shown)
VH: B1 VH with N100Y
VL: B1 VL
notes: also called Test 16
B14: anti-CD55 antibody with CD55VH (SEQ ID NO: 14) N100Q (printed "N1000") and VL (SEQ ID NO: 15) (antibody, V domains shown)
VH: B1 VH with N100Q
VL: B1 VL
notes: The cell prints "N1000"; also called Test 22
B15: anti-CD55 antibody with CD55VH (SEQ ID NO: 14) N100I and VL (SEQ ID NO: 15) (antibody, V domains shown)
VH: B1 VH with N100I
VL: B1 VL
notes: also called Test 23
B16: anti-CD55 antibody with CD55VH (SEQ ID NO: 14) N100H and VL (SEQ ID NO: 15) (antibody, V domains shown)
VH: B1 VH with N100H
VL: B1 VL
notes: also called Test 21
B17: anti-CD55 antibody with CD55VH (SEQ ID NO: 14) N100M and VL (SEQ ID NO: 15) (antibody, V domains shown)
VH: B1 VH with N100M
VL: B1 VL
notes: also called Test 19
B18: anti-CD55 antibody with CD55VH (SEQ ID NO: 14) N100A and VL (SEQ ID NO: 15) (antibody, V domains shown)
VH: B1 VH with N100A
VL: B1 VL
notes: also called Test 20
B19: anti-CD55 antibody with CD55VH (SEQ ID NO: 14) N100T and VL (SEQ ID NO: 15) (antibody, V domains shown)
VH: B1 VH with N100T
VL: B1 VL
notes: also called Test 14
B20: anti-CD55 antibody with CD55VH (SEQ ID NO: 14) N100V and VL (SEQ ID NO: 15) (antibody, V domains shown)
VH: B1 VH with N100V
VL: B1 VL
notes: also called Test 15
B21: anti-CD55 antibody with CD55VH (SEQ ID NO: 14) N100F and VL (SEQ ID NO: 15) (antibody, V domains shown)
VH: B1 VH with N100F
VL: B1 VL
notes: also called Test 18
B22: anti-CD55 antibody with CD55VH (SEQ ID NO: 14) T102M and VL (SEQ ID NO: 15) (antibody, V domains shown)
VH: B1 VH with T102M
VL: B1 VL
notes: also called Test 26
B23: anti-CD55 antibody with CD55VH (SEQ ID NO: 14) N100K and VL (SEQ ID NO: 15) (antibody, V domains shown)
VH: B1 VH with N100K
VL: B1 VL
notes: also called Test 13
B24: parental anti-CD20 IgG (Parental CD20) (antibody, V domains shown)
VH: QVQLQQPGAELVKPGASVKMSCKASGYTFTSYNMHWVKQTPGRGLEWIGAIYPGNGDTSYNQKFKGKATLTADKSSSTAYMQLSSLTSEDSAVYYCARSTYYGGDWYFNVWGAGTTVTVSA
VL: QIVLSQSPAILSASPGEKVTMTCRASSSVSYIHWFQQKPGSSPKPWIYATSNLASGVPVRFSGSGSGTSYSLTISRVEAEDAATYYCQQWTSNPPTFGGGTKLEIKR
notes: IgG; also called Rituximab; CD20 parental Ab
B25: parental anti-CD3 IgG (Parental CD3) (antibody, V domains shown)
VH: QVQLQQSGAELARPGASVKMSCKASGYTFTSYTMHWVKQRPGQGLEWIGYINPSSGYTKYNQKFKDKATLTADKSSSTAYMQLSSLTSEDSAVYYCARWQDYDVYFDYWGQGTTLTVSS
VL: B24 VL with I32M, F35Y, V59A, T91S, I105T
notes: IgG; also called MAb 12F6; CD3 parental Ab
B26: CD3 homodimer IgG containing the designed VH sequence (SEQ ID NO: 2) and the common VL sequence (SEQ ID NO: 3) (antibody, V domains shown)
VH: B25 VH with Q1E, Q6E, Q43E, Q82E, Q111E
VL: B24 VL
notes: IgG homodimer with two VHb and two common VL; also called redesigned 12F6; antibody B
B27: CD20 homodimer IgG containing the designed VH sequence (SEQ ID NO: 1) and the common VL sequence (SEQ ID NO: 3) (antibody, V domains shown)
VH: B24 VH with T87R
VL: B24 VL
notes: IgG homodimer with two VHa and two common VL; also called redesigned Rituximab; antibody A

Molecular target: T1, CD55 (UniProt P08174 35-353, limits assumed)
T1 construct: whole, on cells; also called CD55 on Rituximab resistant Raji cells (RRCL)
T1 sequence (looked up): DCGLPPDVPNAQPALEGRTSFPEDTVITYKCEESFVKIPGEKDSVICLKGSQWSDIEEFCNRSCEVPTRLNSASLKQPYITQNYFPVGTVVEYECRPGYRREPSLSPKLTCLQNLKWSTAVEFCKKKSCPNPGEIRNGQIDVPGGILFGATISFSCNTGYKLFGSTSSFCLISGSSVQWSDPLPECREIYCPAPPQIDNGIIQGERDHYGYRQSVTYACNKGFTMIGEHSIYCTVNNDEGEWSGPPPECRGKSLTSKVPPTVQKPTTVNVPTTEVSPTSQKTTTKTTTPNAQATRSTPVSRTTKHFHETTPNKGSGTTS
Assay: binding at 5 µg/ml, the baseline itself; format not stated

Binder | Function remaining percentage (5 µg/ml) [%]
B1 | 100

Molecular target: PD-L1 (UniProt Q9NZQ7 19-290, limits assumed)
Sequence (Q9NZQ7 19-290 limits assumed): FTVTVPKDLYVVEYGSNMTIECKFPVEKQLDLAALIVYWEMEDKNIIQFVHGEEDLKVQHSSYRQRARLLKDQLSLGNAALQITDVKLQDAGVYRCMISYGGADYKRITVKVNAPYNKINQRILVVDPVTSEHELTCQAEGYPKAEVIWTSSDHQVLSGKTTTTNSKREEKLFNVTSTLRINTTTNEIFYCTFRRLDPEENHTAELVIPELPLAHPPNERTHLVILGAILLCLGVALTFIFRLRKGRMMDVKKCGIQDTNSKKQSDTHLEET
Assay: flow cytometry binding to MDA231 cells, Cy3 goat anti-human IgG detection
Protocol: (§1) a) MDA231 cells are prepared in media at a concentration of 1×10⁶ cells/mL. [0411] b) Dilute antibody sample to an appropriate concentration. [0412] c) Transfer 50 μL, of cells into each well of 96 well V-bottom plate. [0413] d) Transfer 50 μL, of antibodies into wells of 96 well V-bottom plate. [0414] e) Incubate cell mixture for 60 min at room temperature. [0415] f) Spin cells down and wash twice with FACS buffer. [0416] g) Re-suspend cells in 100 μL, FACS buffer containing Cy3 conjugated goat anti-human (GAH) IgG (1:500) in each well. [0417] h) Incubate at room temperature for 30 min, and wash with FACS buffer×2.

Binder | binding result
B2 | binds

Molecular target: T1, CD55
Assay: as above
Protocol: as §1

Binder | binding result
B3 | binds

Molecular target: T1, CD55
Assay: binding at 5 µg/ml against the unmutated antibody (SEQ ID NO: 14 + 15); format not stated

Binder | Function remaining percentage (5 µg/ml) [%]
B4 | 17
B5 | 17
B6 | 16
B7 | 17
B8 | 92
B9 | 21
B10 | 95
B11 | 11
B12 | 17
B13 | 95
B14 | 62
B15 | 62
B16 | 72
B17 | 86
B18 | 83
B19 | 96
B20 | 94
B21 | 86
B22 | 98
B23 | 106

Molecular target: T2, CD20 (UniProt P11836 1-297, limits assumed)
T2 construct: whole, on cells; also called CD20 on Raji cells
T2 sequence (looked up): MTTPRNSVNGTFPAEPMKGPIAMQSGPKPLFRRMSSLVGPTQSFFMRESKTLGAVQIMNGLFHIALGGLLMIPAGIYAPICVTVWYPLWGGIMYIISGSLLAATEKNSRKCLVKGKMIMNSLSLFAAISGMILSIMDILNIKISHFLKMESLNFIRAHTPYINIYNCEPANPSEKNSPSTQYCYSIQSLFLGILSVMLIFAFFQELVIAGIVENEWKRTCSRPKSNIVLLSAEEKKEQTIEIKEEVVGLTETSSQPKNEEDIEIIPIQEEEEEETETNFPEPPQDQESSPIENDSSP
Assay: flow cytometry binding to CD20+ Raji cells, antibody titration, Cy3 goat anti-human IgG detection

Binder | EC50 (read off the curve) [µg/mL] | binding result
B24 | ~0.2 | –
B25 | – | no binding (tested: 10 µg/ml)
B26 | – | no binding (tested: 10 µg/ml)
B27 | ~0.4 | –

Molecular target: T3, CD3 (Homo sapiens (Human), UniProt P07766 23-207; P04234 22-171; P09693 23-182)
T3 construct: also called CD3 on Jurkat cells
T3 sequence (P07766 23-207 limits assumed, chain 1 of 3): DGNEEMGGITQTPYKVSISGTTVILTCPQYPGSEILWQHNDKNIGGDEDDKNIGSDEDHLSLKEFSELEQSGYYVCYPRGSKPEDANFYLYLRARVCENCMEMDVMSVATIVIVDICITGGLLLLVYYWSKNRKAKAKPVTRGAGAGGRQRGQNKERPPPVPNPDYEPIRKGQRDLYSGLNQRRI
T3 sequence (P04234 22-171 limits assumed, chain 2 of 3): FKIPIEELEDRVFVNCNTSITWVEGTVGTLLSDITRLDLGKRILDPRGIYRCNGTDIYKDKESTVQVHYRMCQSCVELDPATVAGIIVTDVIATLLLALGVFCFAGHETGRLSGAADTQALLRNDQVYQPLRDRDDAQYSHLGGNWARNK
T3 sequence (P09693 23-182 limits assumed, chain 3 of 3): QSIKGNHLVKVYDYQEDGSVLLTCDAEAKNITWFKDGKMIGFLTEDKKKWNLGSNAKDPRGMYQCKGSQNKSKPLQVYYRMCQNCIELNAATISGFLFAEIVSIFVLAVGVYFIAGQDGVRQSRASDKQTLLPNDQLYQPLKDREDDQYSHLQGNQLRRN
Assay: flow cytometry binding to CD3+ Jurkat cells, antibody titration, Cy3 goat anti-human IgG detection

Binder | binding result
B24 | no binding (tested: 10 µg/ml)
B27 | no binding (tested: 10 µg/ml)

— patent US20220169728A1 (AB THERAPEUTICS, published 2022)
